This experiment addresses HA-tagged PA of FluA (Influenza A virus). As to the kind of experiment: ELISA. A general note: In an ELISA, binding on a coated surface is turned into a signal by an enzyme label.

Chain of soluble wild-type PB1_(1–25)A peptide (non-biotinylated competitor) (A4GCI3 1-25): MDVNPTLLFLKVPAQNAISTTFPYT

What is called IC50 is the concentration at which inhibition is half-maximal. A low value points to greater potency. “soluble wild-type PB1_(1–25)A peptide (non-biotinylated competitor)” displayed an IC50 of 1.8 nM.

Source of the values: publication PMC2759517.
